Test results: US20120264685A1 (priority 2009, published 2012)
Where no end group is shown, it is not given here. [ ]: non-standard residue; d: D form. Bip(2'-Et-4'-OMe) = CCc1cc(OC)ccc1-c1ccc(C[C@H](N)C(=O)O)cc1; αMePhe(2,6-F2) = C[C@](N)(Cc1c(F)cccc1F)C(=O)O; αMePhe(2-F) = C[C@](N)(Cc1ccccc1F)C(=O)O; αMeBip(OMe) = alpha-methylated Bip(OMe); hhPhe = N[C@@H](CCCc1ccccc1)C(=O)O; αMeD = C[C@](N)(CC(=O)O)C(=O)O; αMeP = C[C@@]1(C(=O)O)CCCN1; αMeAPPA = not defined here; αMeS = C[C@](N)(CO)C(=O)O; Ac3c = NC1(C(=O)O)CC1; Aib = CC(C)(N)C(=O)O

Tests used:
human glucagon receptor = human glucagon receptor (human, UniProt P47871 26-477); assay: cell-based or functional assay
human GLP-1 receptor = human GLP-1 receptor (human, UniProt P43220 24-463); assay: cell-based or functional assay

human glucagon receptor, sequence (P47871 26-477): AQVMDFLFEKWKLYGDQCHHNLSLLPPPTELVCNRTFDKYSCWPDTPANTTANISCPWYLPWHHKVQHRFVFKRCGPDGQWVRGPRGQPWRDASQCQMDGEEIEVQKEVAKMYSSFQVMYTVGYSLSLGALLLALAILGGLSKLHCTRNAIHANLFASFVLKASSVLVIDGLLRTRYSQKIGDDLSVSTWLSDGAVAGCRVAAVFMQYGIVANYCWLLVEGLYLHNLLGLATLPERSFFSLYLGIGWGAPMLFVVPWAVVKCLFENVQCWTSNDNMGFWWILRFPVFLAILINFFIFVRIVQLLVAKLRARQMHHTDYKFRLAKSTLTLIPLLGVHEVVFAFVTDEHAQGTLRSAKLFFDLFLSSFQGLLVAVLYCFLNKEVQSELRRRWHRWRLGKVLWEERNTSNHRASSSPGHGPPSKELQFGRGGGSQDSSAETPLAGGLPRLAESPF

Row | Binder | cAMP production (pmol/ml/µg prt) with saturated glucagon peptide, at 1 nM (human glucagon receptor) | cAMP production (pmol/ml/µg prt) with saturated glucagon peptide, at 10 nM (human glucagon receptor) | cAMP production (pmol/ml/µg prt) with saturated glucagon peptide, at 100 nM (human glucagon receptor) | cAMP production (pmol/ml/µg prt) with saturated glucagon peptide, at 1 µM (human glucagon receptor) | cAMP production (pmol/ml/µg prt) with saturated glucagon peptide, at 10 µM (human glucagon receptor) | cAMP release, % activity with respect to control, at 1 nM (human GLP-1 receptor) | cAMP release, % activity with respect to control, at 10 nM (human GLP-1 receptor) | cAMP release, % activity with respect to control, at 100 nM (human GLP-1 receptor) | cAMP release, % activity with respect to control, at 1 µM (human GLP-1 receptor) | cAMP release, % activity with respect to control, at 10 µM (human GLP-1 receptor)
1 | VH[Aib]EGTFT[αMeS]D[αMeBip(OMe)][hhPhe]-NH2 [Seq. ID. No. 39] | 17 pmol/ml/µg prt | 15 pmol/ml/µg prt | 12 pmol/ml/µg prt | 8 pmol/ml/µg prt | 6 pmol/ml/µg prt | – | – | – | – | –
2 | VH[Aib]QGT[αMePhe(2-F)]TSD[αMeBip(OMe)][hhPhe] (not fully specified (C-terminus); printed as VH-Aib-QGT-(αMe-2FPhe)-TSD-(αMe-Bip(OMe))-(APPA)) [Seq. ID. No. 19] | 15 pmol/ml/µg prt | 12 pmol/ml/µg prt | 8 pmol/ml/µg prt | 4 pmol/ml/µg prt | 2 pmol/ml/µg prt | – | – | – | – | –
3 | VH[Aib]EGTFTSD[αMeBip(OMe)][hhPhe] (not fully specified (C-terminus); printed as VH-Aib-EGTFTSD-(αMe-Bip(OMe))-(APPA)) [Seq. ID. No. 13] | 20 pmol/ml/µg prt | 18 pmol/ml/µg prt | 16 pmol/ml/µg prt | 14 pmol/ml/µg prt | 12 pmol/ml/µg prt | – | – | – | – | –
4 | VH[Ac3c]EGTFTSD[αMeBip(OMe)][hhPhe] (not fully specified (C-terminus)) [Seq. ID. No. 16] | – | – | – | – | – | 99 % of control | 99 % of control | 99 % of control | 99 % of control | 99 % of control
5 | VHAQGT[αMePhe(2,6-F2)]TSD[αMeBip(OMe)][hhPhe]-NH2 [Seq. ID. No. 26] | – | – | – | – | – | 99 % of control | 99 % of control | 99 % of control | 99 % of control | 99 % of control
6 | VHAQGT[αMePhe(2-F)]TSD[αMeBip(OMe)][hhPhe] (not fully specified (C-terminus); printed as VHAQGT-(αMe-2FPhe)-TSD-(αMe-Bip(OMe))-(APPA)) [Seq. ID. No. 18] | – | – | – | – | – | 99 % of control | 99 % of control | 99 % of control | 99 % of control | 99 % of control
7 | VHAEGT[αMePhe(2,6-F2)]TSD[αMeBip(OMe)][hhPhe]-NH2 [Seq. ID. No. 30] | 5 pmol/ml/µg prt | 3 pmol/ml/µg prt | 0 pmol/ml/µg prt | 0 pmol/ml/µg prt | 0 pmol/ml/µg prt | – | – | – | – | –
8 | VH[Aib]EGT[αMePhe(2-F)]TSD[αMeBip(OMe)][hhPhe]-NH2 [Seq. ID. No. 23] | 10 pmol/ml/µg prt | 8 pmol/ml/µg prt | 6 pmol/ml/µg prt | 2 pmol/ml/µg prt | 0 pmol/ml/µg prt | – | – | – | – | –
9 | VH[αMeP]EGTFTSD[αMeBip(OMe)][hhPhe] (not fully specified (C-terminus); printed as VH-(αMe-Pro)-EGTFTSD-(αMe-Bip(OMe))-(APPA)) [Seq. ID. No. 14] | – | – | – | – | – | 55 % of control | 89 % of control | 93 % of control | 99 % of control | 99 % of control
10 | VHSQGT[αMePhe(2-F)]TSD[αMeBip(OMe)][hhPhe] (not fully specified (C-terminus); printed as VHSQGT-(αMe-2FPhe)-TSD-(αMe-Bip(OMe))-(APPA)) [Seq. ID. No. 17] | 6 pmol/ml/µg prt | 5 pmol/ml/µg prt | 2 pmol/ml/µg prt | 0 pmol/ml/µg prt | 0 pmol/ml/µg prt | – | – | – | – | –
11 | VHAQGTFT[αMeS]D[αMeBip(OMe)][hhPhe]-NH2 [Seq. ID. No. 34] | – | – | – | – | – | 99 % of control | 99 % of control | 99 % of control | 99 % of control | 99 % of control

Now from value to binder:

Row | cAMP production (pmol/ml/µg prt) with saturated glucagon peptide, at 1 nM (human glucagon receptor) | cAMP production (pmol/ml/µg prt) with saturated glucagon peptide, at 10 nM (human glucagon receptor) | cAMP production (pmol/ml/µg prt) with saturated glucagon peptide, at 100 nM (human glucagon receptor) | cAMP production (pmol/ml/µg prt) with saturated glucagon peptide, at 1 µM (human glucagon receptor) | cAMP production (pmol/ml/µg prt) with saturated glucagon peptide, at 10 µM (human glucagon receptor) | cAMP release, % activity with respect to control, at 1 nM (human GLP-1 receptor) | cAMP release, % activity with respect to control, at 10 nM (human GLP-1 receptor) | cAMP release, % activity with respect to control, at 100 nM (human GLP-1 receptor) | cAMP release, % activity with respect to control, at 1 µM (human GLP-1 receptor) | cAMP release, % activity with respect to control, at 10 µM (human GLP-1 receptor) | Binder
12 | – | – | – | – | – | 38 % of control | 77 % of control | 85 % of control | 94 % of control | 97 % of control | VHAEGTFTSD[Bip(2'-Et-4'-OMe)][αMeAPPA] (not fully specified (C-terminus); printed as VHAEGTFTSD-Bip(OMe)-(αMe-APPA); reading uncertain) [Seq. ID. No. 88]
13 | – | – | – | – | – | 39 % of control | 80 % of control | 88 % of control | 96 % of control | 99 % of control | VH[Aib]QGTFTS[αMeD][αMeBip(OMe)][hhPhe]-NH2 [Seq. ID. No. 59]
14 | 5 pmol/ml/µg prt | 3 pmol/ml/µg prt | 0 pmol/ml/µg prt | 0 pmol/ml/µg prt | 0 pmol/ml/µg prt | – | – | – | – | – | VH[αMeP]QGT[αMePhe(2-F)]T[αMeS]D[αMeBip(OMe)][hhPhe]-NH2 [Seq. ID. No. 44]
15 | – | – | – | – | – | 66 % of control | 97 % of control | 99 % of control | 99 % of control | 99 % of control | VH[αMeP]QGT[αMePhe(2,6-F2)]TS[αMeD][αMeBip(OMe)][hhPhe] (not fully specified (C-terminus)) [Seq. ID. No. 76]
16 | – | – | – | – | – | 69 % of control | 98 % of control | 99 % of control | 99 % of control | 99 % of control | VH[Aib]EGT[αMePhe(2,6-F2)]TS[αMeD][αMeBip(OMe)][hhPhe] (not fully specified (C-terminus)) [Seq. ID. No. 79]
17 | – | – | – | – | – | 40 % of control | 81 % of control | 87 % of control | 95 % of control | 98 % of control | VH[αMeP]QGTFTSD[Bip(2'-Et-4'-OMe)][αMeAPPA] (not fully specified (C-terminus); printed as VH-(αMe-Pro)-QGTFTSD-Bip(OMe)-(αMe-APPA); reading uncertain) [Seq. ID. No. 84]
18 | – | – | – | – | – | 38 % of control | 78 % of control | 86 % of control | 95 % of control | 98 % of control | VHSQGT[αMePhe(2,6-F2)]T[αMeS]D[αMeBip(OMe)][hhPhe]-NH2 [Seq. ID. No. 49]
19 | 9 pmol/ml/µg prt | 6 pmol/ml/µg prt | 5 pmol/ml/µg prt | 3 pmol/ml/µg prt | 0 pmol/ml/µg prt | – | – | – | – | – | VH[Aib]EGT[αMePhe(2-F)]T[αMeS]D[αMeBip(OMe)][hhPhe]-NH2 [Seq. ID. No. 47]
20 | 20 pmol/ml/µg prt | 18 pmol/ml/µg prt | 16 pmol/ml/µg prt | 14 pmol/ml/µg prt | 12 pmol/ml/µg prt | – | – | – | – | – | VH[Aib]EGTFTS[αMeD][αMeBip(OMe)][hhPhe]-NH2 [Seq. ID. No. 63]
21 | – | – | – | – | – | 40 % of control | 81 % of control | 87 % of control | 95 % of control | 98 % of control | VH[αMeP]QGT[αMePhe(2-F)]TS[αMeD][αMeBip(OMe)][hhPhe]-NH2 [Seq. ID. No. 68]
22 | – | – | – | – | – | 45 % of control | 84 % of control | 90 % of control | 99 % of control | 99 % of control | VH[αMeP]EGTFTS[αMeD][αMeBip(OMe)][hhPhe]-NH2 [Seq. ID. No. 64]
